Reference: US20200024330A1

Columns and labels:
Experiment in all cases: cell-based or functional assay
[1] = molecular target: HIV-1 IAVI-C3 envelope glycoprotein (Env) on pseudovirus (HIV-1)
[2] = molecular target: HIV-1 92RW020 Env (pseudovirus) (HIV-1 92RW020)
[3] = molecular target: HIV-1 JR-CSF Env, wild type (pseudovirus) (HIV-1 JR-CSF) (UniProt P20871)
[4] = molecular target: aMLV envelope protein on pseudotyped virus (negative control) (aMLV)
[5] = molecular target: HIV-1 Env of isolate MGRM-D-029 (HIV-1)
[6] = molecular target: HIV-1 92BR020 envelope glycoprotein (Env) (HIV-1)
[7] = molecular target: HIV-1 APV13 envelope glycoprotein (Env) (HIV-1)
[8] = molecular target: HIV-1 JR-CSF Env D325A (HIV-1 isolate JR-CSF) (UniProt P20871)
[9] = molecular target: HIV-1 JR-CSF Env F317A (HIV-1 isolate JR-CSF) (UniProt P20871)
[10] = molecular target: HIV-1 JR-CSF Env I309A (HIV-1 JR-CSF) (UniProt P20871)
[11] = molecular target: HIV-1 JR-CSF Env K343A (HIV-1 isolate JR-CSF) (UniProt P20871)
[12] = molecular target: HIV-1 JR-CSF Env N262A (HIV-1 JR-CSF) (UniProt P20871)
[13] = molecular target: HIV-1 JR-CSF Env N276A (HIV-1 JR-CSF) (UniProt P20871)
[14] = molecular target: HIV-1 JR-CSF Env N295A (HIV-1 JR-CSF) (UniProt P20871)
[15] = molecular target: HIV-1 JR-CSF Env N301A (HIV-1 JR-CSF) (UniProt P20871)
[16] = molecular target: HIV-1 JR-CSF Env N339A (HIV-1 isolate JR-CSF) (UniProt P20871)
[17] = molecular target: HIV-1 JR-CSF Env N355A (HIV-1 isolate JR-CSF) (UniProt P20871)
[18] = molecular target: HIV-1 JR-CSF Env N386A (HIV-1 isolate JR-CSF) (UniProt P20871)
[19] = molecular target: HIV-1 JR-CSF Env Q422A (HIV-1 (isolate JR-CSF)) (UniProt P20871)
[20] = molecular target: HIV-1 JR-CSF Env R304A (HIV-1 JR-CSF) (UniProt P20871)
[21] = molecular target: HIV-1 JR-CSF Env R350A (HIV-1 isolate JR-CSF) (UniProt P20871)
[22] = molecular target: HIV-1 JR-CSF Env T320A (HIV-1 isolate JR-CSF) (UniProt P20871)
[23] = molecular target: HIV-1 JR-CSF Env T341A (HIV-1 isolate JR-CSF) (UniProt P20871)
[24] = molecular target: HIV-1 JR-CSF Env W395A (HIV-1 (isolate JR-CSF)) (UniProt P20871)
[25] = molecular target: HIV-1 92RW020 Env (pseudovirus) (HIV-1)
[26] = molecular target: HIV-1 JRFL Env (pseudovirus) (HIV-1)
[27] = molecular target: HIV-1 MGRM-C-026 Env (pseudovirus) (HIV-1)
[28] = molecular target: HIV-1 MGRM-D-001 Env (pseudovirus) (HIV-1)
[29] = molecular target: HIV-1 Env of isolate 92RW009 (HIV-1)
[30] = molecular target: HIV-1 Env of isolate 92RW024 (HIV-1)
[31] = molecular target: HIV-1 Env of isolate 93RW029 (HIV-1)
[32] = molecular target: HIV-1 Env of isolate MGRM-C-025 (subtype C), on pseudovirus (HIV-1)
[33] = molecular target: HIV-1 Env of isolate MGRM-C-027 (subtype C), on pseudovirus (HIV-1)
[34] = molecular target: HIV-1 Env of isolate SC422661.8 (subtype B) (HIV-1)
[35] = molecular target: HIV-1 envelope glycoprotein (Env) of isolate 6535.3, on pseudovirus (HIV-1)
[36] = molecular target: HIV-1 envelope glycoprotein (Env) of isolate MGRM-Chronic-B-004, on pseudovirus (HIV-1)
[37] = molecular target: HIV-1 envelope glycoprotein (Env) of isolate MGRM-Chronic-B-010, on pseudovirus (HIV-1)
[38] = molecular target: HIV-1 envelope glycoprotein (Env) of isolate MGRM-Chronic-B-012, on pseudovirus (HIV-1)
[39] = molecular target: HIV-1 envelope glycoprotein (Env) of isolate MGRM-Chronic-B-017, on pseudovirus (HIV-1)
[40] = molecular target: aMLV envelope on pseudovirus (negative control)

Substance: 2G12 (antibody)
- IC90 (pseudovirus neutralization) [1]: > 50 µg/mL

Substance: 1443_C16 (PG16) (TCN-116) (antibody)
- IC50 (ug/ml), neutralization [2]: 0.09 µg/mL
- IC90 (pseudovirus neutralization) [1]: > 50 µg/mL
- IC50 (ug/ml), neutralization [3]: 0.001 µg/mL
- IC50, pseudovirus neutralization, 1 hour Virus/Ab Incubation [4]: > 50 µg/mL
- IC50, pseudovirus neutralization, 18 hour Virus/Ab Incubation [4]: > 50 µg/mL

Substance: VRC01 (antibody)
- IC50, pseudovirus neutralization [5]: 3.22 µg/mL

Substance: PGT-122 (antibody)
- IC50 neutralization [6]: 0.0337 µg/mL
- IC50 neutralization [7]: 0.992 µg/mL
- Fold IC50 increase relative to wild-type [8]: 44 fold
- Fold IC50 increase relative to wild-type [9]: 3.4 fold
- Fold IC50 increase relative to wild-type [10]: 2.1 fold
- Fold IC50 increase relative to wild-type [11]: 0.3 fold
- Fold IC50 increase relative to wild-type [12]: 1.1 fold
- Fold IC50 increase relative to wild-type [13]: 1.4 fold
- Fold IC50 increase relative to wild-type [14]: 0.7 fold
- Fold IC50 increase relative to wild-type [15]: 0.4 fold
- Fold IC50 increase relative to wild-type [16]: 0.4 fold
- Fold IC50 increase relative to wild-type [17]: 0.8 fold
- Fold IC50 increase relative to wild-type [18]: 1.2 fold
- Fold IC50 increase relative to wild-type [19]: 1.1 fold
- Fold IC50 increase relative to wild-type [20]: 0.7 fold
- Fold IC50 increase relative to wild-type [21]: 0.6 fold
- Fold IC50 increase relative to wild-type [22]: 0.7 fold
- Fold IC50 increase relative to wild-type [23]: 0.3 fold
- Fold IC50 increase relative to wild-type [24]: 0.4 fold

Substance: 4838_L06 (PGT-121) (antibody)
- neutralization IC80 [25]: 0.0188 µg/mL
- neutralization IC90 [25]: 0.0361 µg/mL
- neutralization IC95 [25]: 0.0671 µg/mL
- neutralization IC80 [26]: 0.0806 µg/mL
- neutralization IC90 [26]: 0.151 µg/mL
- neutralization IC95 [26]: 0.267 µg/mL
- neutralization IC95 [27]: 0.0687 µg/mL
- neutralization IC80 [28]: 3.29 µg/mL
- neutralization IC90 [28]: 6.26 µg/mL
- neutralization IC95 [28]: 9.39 µg/mL

Substance: PGT-121 (antibody)
- IC50 neutralization [6]: 0.0177 µg/mL
- IC50 neutralization [7]: 0.316 µg/mL
- Fold IC50 increase relative to wild-type [8]: 2 fold
- Fold IC50 increase relative to wild-type [9]: 1.7 fold
- Fold IC50 increase relative to wild-type [10]: 1.1 fold
- Fold IC50 increase relative to wild-type [11]: 0.6 fold
- Fold IC50 increase relative to wild-type [12]: 1.1 fold
- Fold IC50 increase relative to wild-type [13]: 0.8 fold
- Fold IC50 increase relative to wild-type [14]: 0.6 fold
- Fold IC50 increase relative to wild-type [15]: 0.4 fold
- Fold IC50 increase relative to wild-type [16]: 0.5 fold
- Fold IC50 increase relative to wild-type [17]: 1.4 fold
- Fold IC50 increase relative to wild-type [18]: 1.3 fold
- Fold IC50 increase relative to wild-type [19]: 1.2 fold
- Fold IC50 increase relative to wild-type [20]: 1.7 fold
- Fold IC50 increase relative to wild-type [21]: 0.8 fold
- Fold IC50 increase relative to wild-type [22]: 1.2 fold
- Fold IC50 increase relative to wild-type [23]: 0.5 fold
- Fold IC50 increase relative to wild-type [24]: 0.5 fold

Substance: 1496_C09 (PG9) (TCN-109) (antibody)
- IC50 (ug/ml), neutralization [2]: 0.1 µg/mL
- IC50 [29]: 0.05 µg/mL
- IC50 [30]: 0.258 µg/mL
- IC50 [31]: 0.69 µg/mL
- IC50 (µg/mL), pseudovirus neutralization [32]: 0.148 µg/mL
- IC50 (µg/mL), pseudovirus neutralization [33]: 5.36 µg/mL
- IC50 (µg/mL), pseudovirus neutralization [34]: 1.48 µg/mL
- IC50 (ug/ml), neutralization [3]: 0.006 µg/mL
- IC50, pseudovirus neutralization [35]: 1.05 µg/mL
- IC50, pseudovirus neutralization [36]: 0.533 µg/mL
- IC50, pseudovirus neutralization [37]: 0.004 µg/mL
- IC50, pseudovirus neutralization [38]: 0.2 µg/mL
- IC50, pseudovirus neutralization [39]: 0.688 µg/mL

Substance: 1495_C14 (PGC14) (antibody)
- IC50, pseudovirus neutralization, 1 hour Virus/Ab Incubation [4]: > 50 µg/mL
- IC50, pseudovirus neutralization, 18 hour Virus/Ab Incubation [4]: > 50 µg/mL

Substance: 5123_A06 (PGT-125) (antibody)
- neutralization IC50 [40]: > 10 µg/mL
- neutralization IC80 [40]: > 10 µg/mL
- neutralization IC90 [40]: > 10 µg/mL
- neutralization IC95 [40]: > 10 µg/mL

Substance: 5141_B17 (PGT-126) (antibody)
- IC50 [25]: 0.0046 µg/mL
- IC80 [25]: 0.0168 µg/mL
- IC90 [25]: 0.0359 µg/mL
- IC95 [25]: 0.0728 µg/mL
- IC50 [26]: 0.014 µg/mL
- IC80 [26]: 0.0454 µg/mL
- IC90 [26]: 0.09 µg/mL
- IC95 [26]: 0.169 µg/mL
- IC50 [27]: 0.0076 µg/mL
- IC80 [27]: 0.0345 µg/mL
- IC90 [27]: 0.0831 µg/mL
- IC95 [27]: 0.185 µg/mL
- IC50 [28]: 0.0639 µg/mL
- IC80 [28]: 0.333 µg/mL
- IC90 [28]: 0.832 µg/mL
- IC95 [28]: 1.8 µg/mL

Substance: PGV04 (antibody)
- IC50 [29]: 0.108 µg/mL
- IC50 [30]: 0.31 µg/mL
- IC50 [31]: 0.54 µg/mL
- IC50 (µg/mL), pseudovirus neutralization [32]: > 50 µg/mL
- IC50 (µg/mL), pseudovirus neutralization [33]: 2.76 µg/mL
- IC50 (µg/mL), pseudovirus neutralization [5]: 1.56 µg/mL
- IC50 (µg/mL), pseudovirus neutralization [34]: 0.11 µg/mL
- IC50, pseudovirus neutralization [35]: 0.757 µg/mL
- IC50, pseudovirus neutralization [36]: 0.047 µg/mL
- IC50, pseudovirus neutralization [37]: 0.744 µg/mL
- IC50, pseudovirus neutralization [38]: > 50 µg/mL
- IC50, pseudovirus neutralization [39]: 0.129 µg/mL

Substance: 4858_P08 (PGT-123) (antibody)
- IC50, pseudovirus neutralization [40]: > 10 µg/mL
- IC80, pseudovirus neutralization [40]: > 10 µg/mL
- IC90 (pseudovirus neutralization) [40]: > 10 µg/mL
- IC95, pseudovirus neutralization [40]: > 10 µg/mL
